Target: grass pollen allergic patients' IgE antibodies
Assay: ELISA competition; sera of 20 patients preadsorbed with 10 ug/ml rPhl p 6; competitor: plate-bound rPhl p 6

B1: recombinant Phl p 6 (protein, timothy grass, UniProt P43215 23-132, looked up)
chain: GKATTEEQKLIEDVNASFRAAMATTANVPPADKYKTFEAAFTVSSKRNLADAVSKAPQLVPKLDEVYNAAYNAADHAAPEDKYEAFVLHFSEALRIIAGTPEVHAVKPGA
- % inhibition of IgE binding: 80%
